B1: Regulatory protein NPR1 (Arabidopsis thaliana (Mouse-ear cress)), P93002 (parent)
chain: MDTTIDGFADSYEISSTSFVATDNTDSSIVYLAAEQVLTGPDVSALQLLSNSFESVFDSPDDFYSDAKLVLSDGREVSFHRCVLSARSSFFKSALAAAKKEKDSNNTAAVKLELKEIAKDYEVGFDSVVTVLAYVYSSRVRPPPKGVSECADENCCHVACRPAVDFMLEVLYLAFIFKIPELITLYQRHLLDVVDKVVIEDTLVILKLANICGKACMKLLDRCKEIIVKSNVDMVSLEKSLPEELVKEIIDRRKELGLEVPKVKKHVSNVHKALDSDDIELVKLLLKEDHTNLDDACALHFAVAYCNVKTATDLLKLDLADVNHRNPRGYTVLHVAAMRKEPQLILSLLEKGASASEATLEGRTALMIAKQATMAVECNNIPEQCKHSLKGRLCVEILEQEDKREQIPRDVPPSFAVAADELKMTLLDLENRVALAQRLFPTEAQAAMEIAEMKGTCEFIVTSLEPDRLTGTKRTSPGVKIAPFRILEEHQSRLKALSKTVELGKRFFPRCSAVLDQIMNCEDLTQLACGEDDTAEKRLQKKQRYMEIQETLKKAFSEDNLELGNSSLTDSTSSTSKSTGGKRSNRKLSHRRR
partner: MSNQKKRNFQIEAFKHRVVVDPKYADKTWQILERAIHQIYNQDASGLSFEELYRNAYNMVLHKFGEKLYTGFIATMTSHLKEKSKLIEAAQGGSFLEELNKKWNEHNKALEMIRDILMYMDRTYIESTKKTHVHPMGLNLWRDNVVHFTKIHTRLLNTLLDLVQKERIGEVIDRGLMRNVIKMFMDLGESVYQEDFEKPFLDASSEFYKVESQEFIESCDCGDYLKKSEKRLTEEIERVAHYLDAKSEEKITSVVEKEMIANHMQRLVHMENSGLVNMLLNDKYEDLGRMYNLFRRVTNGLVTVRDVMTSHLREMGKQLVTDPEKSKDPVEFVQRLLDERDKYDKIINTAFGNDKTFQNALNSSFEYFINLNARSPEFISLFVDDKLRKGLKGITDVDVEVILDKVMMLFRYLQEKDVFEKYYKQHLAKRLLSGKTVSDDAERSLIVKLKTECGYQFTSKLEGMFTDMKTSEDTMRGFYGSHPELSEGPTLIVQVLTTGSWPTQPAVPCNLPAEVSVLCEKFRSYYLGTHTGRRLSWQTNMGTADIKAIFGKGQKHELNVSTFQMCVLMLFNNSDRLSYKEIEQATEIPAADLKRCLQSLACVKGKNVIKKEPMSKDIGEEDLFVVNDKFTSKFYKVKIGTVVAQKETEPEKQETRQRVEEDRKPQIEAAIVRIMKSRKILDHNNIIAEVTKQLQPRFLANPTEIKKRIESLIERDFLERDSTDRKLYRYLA

Variants of: B1
Conditions: with cul3a_arath CUL3A

Row | effect of a mutation on the interaction | Variant
1 | decreasing interaction | MDTTIDGFADAYEIASTSFVATDNTDSSIVYLAAEQVLTGPDVSALQLLSNSFESVFDSPDDFYSDAKLVLSDGREVSFHRCVLSARSSFFKSALAAAKKEKDSNNTAAVKLELKEIAKDYEVGFDSVVTVLAYVYSSRVRPPPKGVSECADENCCHVACRPAVDFMLEVLYLAFIFKIPELITLYQRHLLDVVDKVVIEDTLVILKLANICGKACMKLLDRCKEIIVKSNVDMVSLEKSLPEELVKEIIDRRKELGLEVPKVKKHVSNVHKALDSDDIELVKLLLKEDHTNLDDACALHFAVAYCNVKTATDLLKLDLADVNHRNPRGYTVLHVAAMRKEPQLILSLLEKGASASEATLEGRTALMIAKQATMAVECNNIPEQCKHSLKGRLCVEILEQEDKREQIPRDVPPSFAVAADELKMTLLDLENRVALAQRLFPTEAQAAMEIAEMKGTCEFIVTSLEPDRLTGTKRTSPGVKIAPFRILEEHQSRLKALSKTVELGKRFFPRCSAVLDQIMNCEDLTQLACGEDDTAEKRLQKKQRYMEIQETLKKAFSEDNLELGNSSLTDSTSSTSKSTGGKRSNRKLSHRRR [S11A;S15A]
